From patent US9926377B2, “Anti-GPC3 antibodies and immunoconjugates” (GENENTECH, INC., priority 2014, dated 2018) come the findings set out here.

Test [1] deals with T1, GPC3 (Homo sapiens, UniProt P51654). The test is described as follows: Western blot detection of human GPC3. The test is classed as binding. The text has this:
(§1) Antibody 7H1 also detects human, cynomolgus monkey, rat, and mouse GPC3 by Western blot.
(In general: A western blot detects proteins with antibodies after separation by electrophoresis.)
Target sequence in this assay (P51654 25-554): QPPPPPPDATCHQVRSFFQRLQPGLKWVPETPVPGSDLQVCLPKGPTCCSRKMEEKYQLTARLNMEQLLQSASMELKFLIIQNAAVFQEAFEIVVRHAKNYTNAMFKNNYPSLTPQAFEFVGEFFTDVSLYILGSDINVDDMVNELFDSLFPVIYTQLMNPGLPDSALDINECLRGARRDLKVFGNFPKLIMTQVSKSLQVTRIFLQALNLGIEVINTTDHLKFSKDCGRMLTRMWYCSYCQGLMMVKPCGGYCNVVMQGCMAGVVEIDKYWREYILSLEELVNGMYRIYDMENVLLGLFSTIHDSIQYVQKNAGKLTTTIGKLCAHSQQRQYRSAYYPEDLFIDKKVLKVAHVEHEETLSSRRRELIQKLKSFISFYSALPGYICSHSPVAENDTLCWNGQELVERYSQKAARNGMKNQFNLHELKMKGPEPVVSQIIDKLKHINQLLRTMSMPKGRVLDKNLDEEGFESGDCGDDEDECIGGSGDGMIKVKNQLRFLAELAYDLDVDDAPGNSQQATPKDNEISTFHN

The test system of test [2] is cynomolgus monkey GPC3. Kind of test: Western blot detection of cynomolgus monkey GPC3. The test is classed as binding.
Source text: as §1

The target of test [3] is rat GPC3 (Rattus norvegicus, UniProt P13265). Kind of test: Western blot detection of rat GPC3. The format is binding.
Source text: as §1

The target in test [4] is mouse GPC3 (Mus musculus, UniProt Q8CFZ4). The test is described as follows: Western blot detection of mouse GPC3. The test is classed as binding.
Source text: as §1

The target of test [5] is biotinylated GPC3 (Homo sapiens, UniProt P51654). The test is described as follows: Epitope binning competition assay (Octet RED384). The format is binding. The settings on record: 7H1 or 4G7 as first saturating antibody 10 μg/ml; competing antibodies 5 μg/ml. On the procedure:
Epitope binning of anti-GPC3 antibodies was performed using a competition assay. Using the Octet RED384 instrument (ForteBio), biotinylated GPC3 was captured onto Streptavidin biosensors at 10 μg/ml for 600 seconds. Binding of the first antibody to saturation was achieved by adding 10 μg/ml for 600 seconds. The same biosensors were dipped into the competing antibodies at 5 μg/ml and binding was measured for 600 seconds. […] Antibody 7H1 was used as the first saturating antibody. A subsequent experiment was performed using antibody 4G7 as the first saturating antibody.
(In BLI a coated tip is dipped into the sample, and binding shifts an interference pattern.)

For test [6], the target named is T1, GPC3. The test is described as follows: Reactivity by immunohistochemistry (IHC). The test is classed as binding. Also on record: endogenous in cells.
Source text: (§2) Positive clones were expanded and re-screened for binding to huGPC3, cynoGPC3, and HepG2 cells by ELISA, FACS, and immunohistochemistry (IHC). Thirteen antibodies were selected and purified, including antibodies 7H1 and 4G7. The heavy and light chain variable region sequences of antibody 7H1 are shown in SEQ ID NOs: 2 and 3, respectively. The heavy and light chain variable region sequences of antibody 4G7 are shown in SEQ ID NOs: 26 and 27, respectively.
as §1
Target sequence in this assay (P51654 25-554): as above

The target in test [7] is T1, GPC3. The test is described as follows: Binding to GPC3-expressing cells by FACS. On the set-up: endogenous in cells.
Source text: as §2, §1
For orientation: In flow cytometry, cells or beads pass a laser one at a time.
Target sequence in this assay (P51654 25-554): as above

Test [8] addresses T1, GPC3. The test is described as follows: FACS binding to human GPC3 fragments expressed on 293S cells. On the set-up: C-terminal glycophosphatidylinositol anchor (GPI link) (C); expressed in transfected cells; host or cells: 293S cells, transient. An excerpt:
(§3) C-terminal truncation constructs of human GPC3 were made to further refine the epitopes for antibodies 7H1 and 4G7. […] The three C-terminal truncations each comprised the GPC N-terminal signal sequence (SS) and C-terminal glycophosphatidylinositol anchor (GPI link). […] See FIG. 7 (Santa Cruz Biotechnology antibody 1G12, which was raised to amino acids 511-580 of human GPC3, was used as a positive control for C-terminal fragment binding). Antibody 7H1 was reformatted as a chimeric antibody with human A118C cysteine-engineered IgG1 and Igκ constant regions (SEQ ID NOs: 42 and 43).

The target of test [9] is T1, GPC3. Kind of test: Western blot binding to C-terminal truncation constructs of human GPC3. Also on record: C-terminal glycophosphatidylinositol anchor (GPI link) (C); expressed in transfected cells; host or cells: 293S cells, transient.
Source text: as §3

The target in test [10] is T2, human GPC3 (Homo sapiens, UniProt P51654).
T2 construct: C-terminal glycophosphatidylinositol anchor (GPI link) (C); expressed in transfected cells; host or cells: 293S cells, transient
T2 sequence (P51654 359-560): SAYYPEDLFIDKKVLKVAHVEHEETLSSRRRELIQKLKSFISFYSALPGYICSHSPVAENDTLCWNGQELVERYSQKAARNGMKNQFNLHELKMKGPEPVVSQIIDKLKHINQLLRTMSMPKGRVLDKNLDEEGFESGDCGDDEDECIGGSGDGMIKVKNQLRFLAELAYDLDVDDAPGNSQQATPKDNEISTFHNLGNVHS
Kind of test: FACS binding to human GPC3 fragments expressed on 293S cells. The settings on record: C-terminal fragment, amino acids 359-560 of human GPC3, on 293S cells.
Source text: as §3

[11] abbreviates: N-terminal fragment, amino acids 25 to 358 of human GPC3, on 293S cells.

Sequence of biotinylated GPC3 (P51654 25-554): as the sequence (P51654 25-554) above
Sequence of cynomolgus monkey GPC3 (as listed by the source): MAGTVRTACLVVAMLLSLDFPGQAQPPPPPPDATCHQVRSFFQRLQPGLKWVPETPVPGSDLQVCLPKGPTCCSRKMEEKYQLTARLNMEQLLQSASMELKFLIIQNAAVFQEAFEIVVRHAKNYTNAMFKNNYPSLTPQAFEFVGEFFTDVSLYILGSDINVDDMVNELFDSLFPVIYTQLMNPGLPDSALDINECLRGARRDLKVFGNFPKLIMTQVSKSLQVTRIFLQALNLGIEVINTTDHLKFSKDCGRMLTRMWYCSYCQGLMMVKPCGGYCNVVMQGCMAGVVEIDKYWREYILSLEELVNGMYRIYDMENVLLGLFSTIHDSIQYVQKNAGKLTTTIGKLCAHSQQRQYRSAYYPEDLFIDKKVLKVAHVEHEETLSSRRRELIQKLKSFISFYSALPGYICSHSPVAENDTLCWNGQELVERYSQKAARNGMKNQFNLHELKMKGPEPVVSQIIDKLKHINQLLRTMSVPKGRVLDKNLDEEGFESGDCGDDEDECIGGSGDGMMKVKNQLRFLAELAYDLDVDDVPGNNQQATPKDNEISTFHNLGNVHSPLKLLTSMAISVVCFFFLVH
Sequence of mouse GPC3 (Q8CFZ4 25-553): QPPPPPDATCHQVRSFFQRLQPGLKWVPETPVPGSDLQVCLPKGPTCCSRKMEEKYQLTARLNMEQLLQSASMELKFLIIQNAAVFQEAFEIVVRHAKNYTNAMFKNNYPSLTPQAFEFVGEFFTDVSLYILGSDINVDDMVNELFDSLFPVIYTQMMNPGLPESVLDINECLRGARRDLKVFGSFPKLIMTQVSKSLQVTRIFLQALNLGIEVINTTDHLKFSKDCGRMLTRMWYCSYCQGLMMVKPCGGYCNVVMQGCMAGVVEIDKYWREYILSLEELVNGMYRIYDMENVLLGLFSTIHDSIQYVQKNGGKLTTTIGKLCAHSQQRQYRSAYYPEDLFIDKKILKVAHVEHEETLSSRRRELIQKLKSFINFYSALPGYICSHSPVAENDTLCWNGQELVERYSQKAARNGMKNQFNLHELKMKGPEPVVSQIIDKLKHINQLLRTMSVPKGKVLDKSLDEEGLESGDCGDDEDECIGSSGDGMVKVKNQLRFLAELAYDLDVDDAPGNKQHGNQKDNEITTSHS
Sequence of rat GPC3 (P13265 with tags, fused parts or gaps limits assumed): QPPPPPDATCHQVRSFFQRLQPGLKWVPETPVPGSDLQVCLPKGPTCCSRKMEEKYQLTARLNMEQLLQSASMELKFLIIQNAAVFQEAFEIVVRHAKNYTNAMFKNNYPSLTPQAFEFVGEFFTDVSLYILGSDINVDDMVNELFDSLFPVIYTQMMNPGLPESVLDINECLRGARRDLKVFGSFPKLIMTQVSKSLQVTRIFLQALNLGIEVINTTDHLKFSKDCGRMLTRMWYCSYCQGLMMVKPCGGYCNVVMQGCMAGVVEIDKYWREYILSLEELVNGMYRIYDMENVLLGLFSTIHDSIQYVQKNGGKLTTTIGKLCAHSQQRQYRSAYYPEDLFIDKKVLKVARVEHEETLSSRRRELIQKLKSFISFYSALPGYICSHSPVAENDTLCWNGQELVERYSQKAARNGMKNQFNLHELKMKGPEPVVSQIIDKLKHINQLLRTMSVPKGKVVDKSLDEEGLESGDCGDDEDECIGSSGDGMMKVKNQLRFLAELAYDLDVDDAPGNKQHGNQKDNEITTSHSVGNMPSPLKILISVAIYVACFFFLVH

B1: 7H1: anti-GPC3 monoclonal antibody; heavy and light chain variable regions SEQ ID NOs: 2 and 3 (antibody, V domains shown)
VH: QVQLQQSGPELVKPGASVKISCKASGYTFTDYYINWVKQKPGQGLEWIGWIYPGSGHTECNETFKGKATLTVDTSSSTAYMQLSSLTSEDTAVYFCTRGYYAPMGYFDYWGQGTTLTVSS
VL: DIQMTQSPSSLSASLGERVSLTCRASQEISGYLSWLQQKPDGTIKRLIYAASTLDSGVPKRFSGSRSGSDYSLTISGLESEDFADYYCLQYASYPYTFGGGTKLEIK
For the molecule B1, the “Detection by Western blot” value in [1], in [2], in [3] and in test [4] was “detects” throughout. Besides, the Epitope bin entry in test [5] is recorded as “different epitope bins”. The “Reactivity by IHC” value in test [6] (HepG2 cells), in test [6] (JHH cells), in test [6] (cells stably transfected with GPC3) and in [6] (hepatic cancer tissue microarray) was “react strongly” in each case. For the same molecule, the “Reactivity by FACS” value in test [7] (293S cells expressing GPC3) and in test [7] (HepG2 X1 cells) was “react strongly” in each case. Moreover, the “Binding by FACS” value in test [8] (setting [11]) is “bind”; in [8] (amino acids 25 to 137 of human GPC3, transiently expressed on 293S cells), “bind”; in [8] (amino acids 25 to 247 of human GPC3, transiently expressed on 293S cells), “bind”. The “Binding by Western blot” value in [9] (amino acids 25 to 137 of human GPC3), in [9] (amino acids 25 to 247 of human GPC3) and in [9] (amino acids 25 to 358 of human GPC3) was “bind” throughout.

B2: 4G7: anti-GPC3 monoclonal antibody; heavy and light chain variable regions SEQ ID NOs: 26 and 27 (antibody, V domains shown)
VH: EVQLQQSGTVLARPGASVKMSCKASGYTFTSYWVHWVKQRPGQGLEWIGAIYPGNIDASYNQKFKGKAKLTAVTSTSTAYMELSSLTNEDSAVYYCSYDYDAWFVYWGQGTLVTVSA
VL: DIQMTQSHKFMSTSVGDRVSITCKASQDVSTAVAWYQQKPGQSPTLLIYSASYRYTGVPDRFTGSGSGTDFTFTISSVQAEDLAVYYCQQHYFTPRTFGGGTKLELK
On to B2, for which the Epitope bin result in [5] is “different epitope bins”. For the same molecule, the “Binding by FACS” value in test [10] and in test [8] (setting [11]) was “did not show significant binding” each time. Besides, the “Reactivity by FACS” value in [7] (293S cells expressing GPC3) and in [7] (HepG2 X1 cells) was “react strongly” each time.
